Test results taken from PMC5601083.

Biological target: T1, RbsR (Serratia sp. ATCC39006) (UniProt A0A2I5T2K0)
T1 sequence: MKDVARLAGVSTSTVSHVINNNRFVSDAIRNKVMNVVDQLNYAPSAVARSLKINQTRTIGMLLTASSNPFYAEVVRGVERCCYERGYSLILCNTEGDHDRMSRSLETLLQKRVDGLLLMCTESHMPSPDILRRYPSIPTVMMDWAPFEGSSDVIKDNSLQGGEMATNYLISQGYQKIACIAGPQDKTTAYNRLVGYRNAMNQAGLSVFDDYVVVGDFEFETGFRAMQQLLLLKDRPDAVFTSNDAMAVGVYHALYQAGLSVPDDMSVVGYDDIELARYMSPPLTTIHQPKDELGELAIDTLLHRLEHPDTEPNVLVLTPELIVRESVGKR
Assay: EMSA
Conditions: complete band shift at 14 nM RbsR (protein:DNA 2.8:1); 10% glycerol, 10 mM Tris pH 8.0, 1 mM DTT, 10 mM KCl, 0.5 mM EDTA, BSA (printed 20 ug m-1), 5 nM probe, 30 min on ice; 7.5% native gel in TGE at 4 C

rbsD upstream probe (LUEGO) was tested, and the binding was 14 nM.
